This is an account of results in patent US20210395318A1 (Molecular Partners, published 2021).

A word on the Kd: it is the constant that tells how readily two partners part at equilibrium. What is called koff is the rate constant with which the complex falls apart. Read a low koff as slow dissociation. A word on the kon: it is the second-order rate constant of association.

The target of one assay is T1, cynomolgus serum albumin (cynomolgus, UniProt A2V9Z4 25-608).
T1 construct: also called CSA
In words: SPR (ProteOn XPR36), Protein #5 captured on hFAP-coated GLC chip, serum albumin as analyte, PBST. The procedure: (§1) All SPR measurements were performed using a ProteOn XPR36 instrument (BioRad) and a running buffer of PBS pH 7.4 containing 0.005% Tween 20® (PBST). The 1:1 Langmuir model was used for the fitting of SPR traces.
(§2) ProteOn setup for Protein #5 binding to serum albumin of different species. First, human FAP (hFAP) was coated on a GLC chip (BioRad) to a level of 700 RU before 50 nM Protein #5 was immobilized as analyte for 120 s (dissociation of 0 s) at constant flow of 100 μl/min to a level of 120 RU. The binding of the serum albumin to Protein #5 was measured by injecting human serum albumin (HSA), cynomolgus serum albumin (CSA) and mouse serum albumin (MSA) in a serial dilution of 100, 33, 11 and 3.7 nM with an association of 120 s and a dissociation of 600 s at a constant flow of 100 μl/min. HSA, CSA and MSA binding was measured serially and the hFAP/Protein #5 complex was regenerated each time with 10 mM glycine pH2 for 18 s at a flow of 100 μl/min. Thus, Protein #5 had to be re-immobilized on hFAP after each regeneration step. […] The kinetic was calculated on the first 300 s of dissociation.

The target of the next assay is T2, human serum albumin (human, UniProt P02768 25-609).
T2 construct: also called HSA
The assay is described as above. The procedure:
as §1, §2

Assay [1] has as its target T3, biotinylated mouse CD40 (Acro Biosystem) (mouse, UniProt P27512 24-193, limits assumed, biotinylated (sites not given)).
T3 construct: also called Bio-mCD40
T3 sequence (looked up): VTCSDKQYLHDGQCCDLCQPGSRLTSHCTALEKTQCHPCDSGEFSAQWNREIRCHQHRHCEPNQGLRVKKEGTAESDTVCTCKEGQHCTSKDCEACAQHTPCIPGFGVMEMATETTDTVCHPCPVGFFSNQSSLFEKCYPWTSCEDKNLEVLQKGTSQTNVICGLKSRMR
In words: SPR (ProteOn XPR36), bio-mCD40 on NLC chip, Protein #5 as analyte. The procedure: as §1
(§3) ProteOn setup for Protein #5 binding to CD40 of different species. CD40 proteins (Acro Biosystem) of different species (human, cynomolgus, mouse) were biotinylated with standard methods known in the art, resulting in bio-hCD40, bio-cCD40 and bio-mCD40 proteins. The bio-hCD40, bio-cCD40 and bio-mCD40 proteins were immobilized on an NLC chip (BioRad) to a level of respectively 300 RU, 250 RU and 300 RU. The interaction of Protein #5 with CD40 was measured by injecting Protein #5 in a serial dilution of 3, 1.5, 0.75, 0.38 and 0.19 nM with an association of 120 s and dissociation of 900 s using a constant flow of 100 μl/min. The measurement was repeated two or three times and the targets were regenerated between the individual measurements using 10 mM glycine pH 2 for 18 s at a flow of 100 μl/min. The signals were double referenced against the running buffer (PBST) treated control lanes.

A further assay deals with T4, mouse FAP (mouse, UniProt P97321 26-761, limits assumed).
T4 construct: also called mFAP
T4 sequence (looked up): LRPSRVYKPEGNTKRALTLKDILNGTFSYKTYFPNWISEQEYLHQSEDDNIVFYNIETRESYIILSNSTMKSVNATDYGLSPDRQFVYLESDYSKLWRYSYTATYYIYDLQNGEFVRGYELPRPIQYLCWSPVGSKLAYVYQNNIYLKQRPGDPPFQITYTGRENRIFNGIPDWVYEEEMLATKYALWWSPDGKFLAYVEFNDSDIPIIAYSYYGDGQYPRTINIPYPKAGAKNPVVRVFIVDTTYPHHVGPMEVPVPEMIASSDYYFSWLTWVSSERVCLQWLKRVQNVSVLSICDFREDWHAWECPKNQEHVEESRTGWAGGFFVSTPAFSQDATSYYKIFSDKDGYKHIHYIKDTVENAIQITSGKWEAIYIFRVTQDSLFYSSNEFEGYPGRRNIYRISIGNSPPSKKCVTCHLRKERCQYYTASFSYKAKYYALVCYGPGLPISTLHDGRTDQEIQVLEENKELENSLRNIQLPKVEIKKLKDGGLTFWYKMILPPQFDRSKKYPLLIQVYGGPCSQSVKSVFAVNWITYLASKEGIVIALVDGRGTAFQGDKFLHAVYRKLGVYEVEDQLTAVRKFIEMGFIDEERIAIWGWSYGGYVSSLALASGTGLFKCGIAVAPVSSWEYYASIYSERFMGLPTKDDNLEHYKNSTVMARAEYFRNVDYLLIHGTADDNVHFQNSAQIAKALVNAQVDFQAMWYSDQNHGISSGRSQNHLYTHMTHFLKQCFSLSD
The assay can be described thus: SPR (ProteOn XPR36), mFAP immobilized on GLC chip, Protein #5 as analyte. The method, then:
as §1
ProteOn setup for Protein #5 binding to FAP of different species. hFAP, cynomolgus FAP (cFAP) and mouse FAP (mFAP) were immobilized on a GLC chip (BioRad) in 10 mM Na Acetate buffer pH5.3 to a level of 1200 RU, 800 RU and 2000 RU, respectively. The interaction of FAP and Protein #5 was measured by applying Protein #5 in a serial dilution of […] and 3.13 nM with an association of 120 s and dissociation of 1800 s using a constant flow of 100 μl/min. The targets were regenerated using 10 mM glycine pH 2 and 124 mM H₃PO₄. The signals were double referenced against the PBST treated control lanes.

Assay [2] addresses human CD40 on primary human B cells or human monocyte-derived dendritic cells (human, UniProt P25942 21-277). In words: cell-based or functional assay.
The target in a further assay is T5, mouse serum albumin (mouse, UniProt P07724 25-608).
T5 construct: also called MSA
In words: SPR (ProteOn XPR36), Protein #5 captured on hFAP-coated GLC chip, serum albumin as analyte, PBST; flagged as overestimated, inaccurate fit; MSA as analyte; patent flags the fit as inaccurate (Chi^2/Rmax 13.1 %) and the KD as overestimated due to nonspecific binding of MSA on the chip. The procedure: as §1, §2

Assay [3] deals with T6, biotinylated cynomolgus CD40 (Acro Biosystem) (cynomolgus, UniProt G7PG38 21-193, biotinylated (sites not given)).
T6 construct: also called Bio-cCD40
In words: SPR (ProteOn XPR36), biotinylated CD40 on NLC chip, Protein #5 as analyte, PBST, 1:1 Langmuir. The procedure:
as §1, §3

T2 sequence (P02768 25-609 limits assumed): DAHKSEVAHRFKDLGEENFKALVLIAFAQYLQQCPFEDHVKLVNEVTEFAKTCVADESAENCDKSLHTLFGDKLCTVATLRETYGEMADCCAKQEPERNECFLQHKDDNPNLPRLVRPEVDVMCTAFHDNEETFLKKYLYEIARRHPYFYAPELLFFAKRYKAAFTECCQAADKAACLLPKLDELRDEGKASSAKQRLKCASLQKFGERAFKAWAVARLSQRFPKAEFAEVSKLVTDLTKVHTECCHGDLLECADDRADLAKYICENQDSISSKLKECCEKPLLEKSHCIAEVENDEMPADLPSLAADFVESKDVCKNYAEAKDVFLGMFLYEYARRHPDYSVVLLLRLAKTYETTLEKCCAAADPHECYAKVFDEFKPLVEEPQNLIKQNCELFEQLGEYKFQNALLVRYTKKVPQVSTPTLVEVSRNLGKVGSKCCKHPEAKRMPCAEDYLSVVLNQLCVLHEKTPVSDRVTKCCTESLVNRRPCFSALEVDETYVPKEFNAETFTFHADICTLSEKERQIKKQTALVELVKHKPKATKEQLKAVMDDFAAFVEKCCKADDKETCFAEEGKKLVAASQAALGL
T1 sequence (A2V9Z4 25-608 limits assumed): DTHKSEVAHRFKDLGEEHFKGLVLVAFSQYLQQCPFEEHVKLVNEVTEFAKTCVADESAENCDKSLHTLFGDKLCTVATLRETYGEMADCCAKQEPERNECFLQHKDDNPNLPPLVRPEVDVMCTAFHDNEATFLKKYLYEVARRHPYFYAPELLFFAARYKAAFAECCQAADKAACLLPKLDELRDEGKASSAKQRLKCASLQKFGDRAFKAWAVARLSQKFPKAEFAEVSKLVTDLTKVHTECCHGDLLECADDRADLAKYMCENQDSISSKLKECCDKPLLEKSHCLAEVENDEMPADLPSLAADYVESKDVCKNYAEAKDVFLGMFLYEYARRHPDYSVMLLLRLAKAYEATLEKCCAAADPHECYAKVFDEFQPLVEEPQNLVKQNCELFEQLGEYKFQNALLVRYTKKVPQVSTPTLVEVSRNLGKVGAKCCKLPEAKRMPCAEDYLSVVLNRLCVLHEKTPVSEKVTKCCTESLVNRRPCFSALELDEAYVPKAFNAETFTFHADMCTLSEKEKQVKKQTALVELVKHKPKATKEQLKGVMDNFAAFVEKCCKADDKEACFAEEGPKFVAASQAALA
Chain of human CD40 on primary human B cells or human monocyte-derived dendritic cells (P25942 21-277 H80K/K81H limits assumed): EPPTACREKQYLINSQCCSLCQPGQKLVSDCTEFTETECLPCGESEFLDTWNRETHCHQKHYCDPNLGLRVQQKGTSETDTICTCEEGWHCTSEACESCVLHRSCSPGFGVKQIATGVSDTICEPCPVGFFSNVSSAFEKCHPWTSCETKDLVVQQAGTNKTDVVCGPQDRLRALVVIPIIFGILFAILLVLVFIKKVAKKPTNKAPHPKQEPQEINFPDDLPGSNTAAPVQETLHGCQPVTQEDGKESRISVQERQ

B1: DARPin Protein #5 (designed binder)
chain: GSDLGKKLLEAARAGQDDEVRELLKAGADVNAKDYFSHTPLHLAARNGHLKIVEVLLKAGADVNAKDFAGKTPLHLAAADGHLEIVEVLLKAGADVNAQDIFGKTPADIAADAGHEDIAEVLQKAAGSPTPTPTTPTPTPTTPTPTPTGSDLGKKLLEAARAGQDDEVRILLAAGADVNAKDVLGWTPLHLAAFEGHLEIVEVLLKAGADVNAKDKKGWTPLQLAARTGHLEIVEVLLKAGADVNAKDHIGATPLHLAAWQGHPEIVEVLLKAGADVNAQDKSGKTPADLAADAGHEDIAEVLQKAAGSPTPTPTTPTPTPTTPTPTPTGSDLGKKLLQAARAGQLDEVRELLKAGADVNAKDTWGFTPLHIAAESGHLEIVEVLLKAGADVNAKDVQGRTPLHIAAHSGHLEIVEVLLKAGADVNAKDFRGWTPLHLAAWSGHLEIVEILLKAGADVNAQDKSGKTPADLAARAGHQDIAEVLQKAAGSPTPTPTTPTPTPTTPTPTPTGSDLGKKLLQAARAGQLDEVRELLKAGADVNAKDTWGFTPLHIAAESGHLEIVEVLLKAGADVNAKDVQGRTPLHIAAHSGHLEIVEVLLKAGADVNAKDFRGWTPLHLAAWSGHLEIVEILLKAGADVNAQDKSGKTPADLAARAGHQDIAEVLQKAA
notes: also called SMA136; Molecule No. 1
As for B1, the Kd was 409 nM in the assay with cynomolgus serum albumin, 50 nM with human serum albumin, 40 nM with mouse serum albumin and 0.101 nM in assay [3]. Besides, the koff with cynomolgus serum albumin was determined as 0.217 s⁻¹; with human serum albumin, 0.0179 s⁻¹; in assay [3], 0.000824 s⁻¹. Besides, the kon with cynomolgus serum albumin was 532000 M⁻¹ s⁻¹; with human serum albumin it was 358000 M⁻¹ s⁻¹; in assay [3] it was 8.25e+06 M⁻¹ s⁻¹. Further, the binding result in assay [1] is “no binding (tested: 3 nM (highest concentration injected))”; in the assay with mouse FAP, “no binding (tested: 50 nM (highest concentration injected))”. Also, the “EC50, upregulation of CD86 and CD69 in human B cells co-cultured with FAP-expressing CHO cells” value in assay [2] lay within 0.04 to 0.07 nM.
